# T1: Olf domain of mouse Latrophilin3 (Lphn3^Olf) (mouse, UniProt Q80TS3-3 199-495)
# T1 chain: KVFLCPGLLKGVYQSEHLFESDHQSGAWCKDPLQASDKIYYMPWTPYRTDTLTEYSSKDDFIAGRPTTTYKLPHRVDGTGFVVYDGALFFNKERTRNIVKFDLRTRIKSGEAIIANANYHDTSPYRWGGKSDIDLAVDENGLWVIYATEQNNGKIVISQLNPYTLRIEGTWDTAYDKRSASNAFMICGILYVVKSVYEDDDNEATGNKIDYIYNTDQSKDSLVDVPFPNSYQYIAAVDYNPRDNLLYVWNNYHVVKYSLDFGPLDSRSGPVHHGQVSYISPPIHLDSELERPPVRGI
# B1: rat Unc5D ectodomain (Unc5D^ecto), biotinylated at a C-terminal Avitag (domain or fragment)
# chain: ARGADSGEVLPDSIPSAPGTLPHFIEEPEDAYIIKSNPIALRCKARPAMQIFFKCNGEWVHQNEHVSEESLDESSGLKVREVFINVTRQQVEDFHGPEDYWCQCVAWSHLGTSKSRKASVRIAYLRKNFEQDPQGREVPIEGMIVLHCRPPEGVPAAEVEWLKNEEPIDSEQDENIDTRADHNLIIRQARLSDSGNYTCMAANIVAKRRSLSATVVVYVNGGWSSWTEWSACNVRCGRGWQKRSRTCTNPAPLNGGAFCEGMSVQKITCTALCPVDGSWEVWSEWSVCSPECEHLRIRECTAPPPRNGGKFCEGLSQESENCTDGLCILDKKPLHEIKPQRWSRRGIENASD
# modifications: biotin on the C-terminal Avitag (enzymatic)
# Experiments:
# [1] = target: B1; assay: SPR; apparent KD; FLRT2LRR mixed with Lphn3Lec-Olf
# [2] = target: FLRT2^LRR+Lphn3^Lec–Olf DDD mutant (mouse, UniProt Q8BLU0 35-362; Q80TS3-3 92-463, D397N | D399T, artificial N-linked glycan at position 397); assay: SPR; apparent KD; FLRT2LRR mixed with Lphn3Lec-Olf DDD mutant
# [3] = target: T1, Olf domain of mouse Latrophilin3 …; assay: ITC
# [4] = target: T2, Unc5D ectodomain (Unc5D^ecto), ITC construct (human (methods; the results say rat), UniProt Q6UXZ4 32-383); assay: ITC
# [5] = target: T2, Unc5D ectodomain (Unc5D^ecto), ITC …; assay: ITC; FLRT2ecto premixed 1:1 with Lphn3Olf
# T2 sequence (Q6UXZ4 32-383): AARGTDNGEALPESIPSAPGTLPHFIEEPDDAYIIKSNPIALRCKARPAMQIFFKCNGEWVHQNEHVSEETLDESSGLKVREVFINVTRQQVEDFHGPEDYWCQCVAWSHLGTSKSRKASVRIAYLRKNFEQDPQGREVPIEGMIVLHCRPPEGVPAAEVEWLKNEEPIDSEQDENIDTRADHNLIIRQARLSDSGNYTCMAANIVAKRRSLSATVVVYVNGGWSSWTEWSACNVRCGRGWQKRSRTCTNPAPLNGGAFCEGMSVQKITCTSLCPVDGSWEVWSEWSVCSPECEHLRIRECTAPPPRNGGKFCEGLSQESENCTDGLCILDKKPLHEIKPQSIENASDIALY
binder,measurement,setting,value
FLRT2^LRR+Lphn3^Lec–Olf (mixed in a 1:2 molar ratio) (complex) chain 1: ACPSVCRCDRNFVYCNERSLTSVPLGIPEGVTVLYLHNNQINNAGFPAELHNVQSVHTVYLYGNQLDEFPMNLPKNVRVLHLQENNIQTISRAALAQLLKLEELHLDDNSISTVGVEDGAFREAISLKLLFLSKNHLSSVPVGLPVDLQELRVDENRIAVISDMAFQNLTSLERLIVDGNLLTNKGIAEGTFSHLTKLKEFSIVRNSLSHPPPDLPGTHLIRLYLQDNQINHIPLTAFANLRKLERLDISNNQLRMLTQGVFDHLSNLKQLTARNNPWFCDCSIKWVTEWLKYIPSSLNVRGFMCQGPEQVRGMAVRELNMNLLSCPT chain 2: PIPMAVVRRELSCESYPIELRCPGTDVIMIESANYGRTDDKICDSDPAQMENIRCYLPDAYKIMSQRCNNRTQCAVVAGPDVFPDPCPGTYKYLEVQYECVPYKVEQKVFLCPGLLKGVYQSEHLFESDHQSGAWCKDPLQASDKIYYMPWTPYRTDTLTEYSSKDDFIAGRPTTTYKLPHRVDGTGFVVYDGALFFNKERTRNIVKFDLRTRIKSGEAIIANANYHDTSPYRWGGKSDIDLAVDENGLWVIYATEQNNGKIVISQLNPYTLRIEGTWDTAYDKRSASNAFMICGILYVVKSVYEDDDNEATGNKIDYIYNTDQSKDSLVDVPFPNSYQYIAAVDYNPRDNLLYVWNNYHVVKYSLDFGPLD,Kd,[1],~9 nM
B1,Kd,[2],~9 nM
"mouse FLRT2 ectodomain (FLRT2^ecto), ITC construct (domain or fragment) CPSVCRCDRNFVYCNERSLTSVPLGIPEGVTVLYLHNNQINNAGFPAELHNVQSVHTVYLYGNQLDEFPMNLPKNVRVLHLQENNIQTISRAALAQLLKLEELHLDDNSISTVGVEDGAFREAISLKLLFLSKNHLSSVPVGLPVDLQELRVDENRIAVISDMAFQNLTSLERLIVDGNLLTNKGIAEGTFSHLTKLKEFSIVRNSLSHPPPDLPGTHLIRLYLQDNQINHIPLTAFANLRKLERLDISNNQLRMLTQGVFDHLSNLKQLTARNNPWFCDCSIKWVTEWLKYIPSSLNVRGFMCQGPEQVRGMAVRELNMNLLSCPTTTPGLPVFTPAPSTVSPTTQSPTLSVPSPSRGSVPPAPTPSKLPTIPDWDGRERVTPPISERIQLSIHFVNDTSIQVSWLSLFTVMAYKLTWVKMGHSLVGGIVQERIVSGEKQHLSLVNLEPRSTYRICLVPLDAFNYRTVEDTICSEATTHASYLNNGSNTASSHEQTTSHSMGSPF",Kd,[3],9.7 nM
same,Kd,[4],2300 nM
FLRT2^ecto+Lphn3^Olf (kept together in the ITC cell) (complex) chain 1: CPSVCRCDRNFVYCNERSLTSVPLGIPEGVTVLYLHNNQINNAGFPAELHNVQSVHTVYLYGNQLDEFPMNLPKNVRVLHLQENNIQTISRAALAQLLKLEELHLDDNSISTVGVEDGAFREAISLKLLFLSKNHLSSVPVGLPVDLQELRVDENRIAVISDMAFQNLTSLERLIVDGNLLTNKGIAEGTFSHLTKLKEFSIVRNSLSHPPPDLPGTHLIRLYLQDNQINHIPLTAFANLRKLERLDISNNQLRMLTQGVFDHLSNLKQLTARNNPWFCDCSIKWVTEWLKYIPSSLNVRGFMCQGPEQVRGMAVRELNMNLLSCPTTTPGLPVFTPAPSTVSPTTQSPTLSVPSPSRGSVPPAPTPSKLPTIPDWDGRERVTPPISERIQLSIHFVNDTSIQVSWLSLFTVMAYKLTWVKMGHSLVGGIVQERIVSGEKQHLSLVNLEPRSTYRICLVPLDAFNYRTVEDTICSEATTHASYLNNGSNTASSHEQTTSHSMGSPF chain 2: KVFLCPGLLKGVYQSEHLFESDHQSGAWCKDPLQASDKIYYMPWTPYRTDTLTEYSSKDDFIAGRPTTTYKLPHRVDGTGFVVYDGALFFNKERTRNIVKFDLRTRIKSGEAIIANANYHDTSPYRWGGKSDIDLAVDENGLWVIYATEQNNGKIVISQLNPYTLRIEGTWDTAYDKRSASNAFMICGILYVVKSVYEDDDNEATGNKIDYIYNTDQSKDSLVDVPFPNSYQYIAAVDYNPRDNLLYVWNNYHVVKYSLDFGPLDSRSGPVHHGQVSYISPPIHLDSELERPPVRGI,Kd,[5],106 nM
